# According to patent US20230167426:
# T1: AcrE2 (type I-E anti-CRISPR from Pseudomonas phage JBD88a)
# T1 chain: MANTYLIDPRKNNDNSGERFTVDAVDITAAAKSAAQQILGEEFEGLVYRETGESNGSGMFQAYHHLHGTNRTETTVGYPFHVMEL
# Biological target: T1, AcrE2 (type I-E anti-CRISPR from …)
protein,measurement,value
6×His-tagged NmeCas9 (Neisseria meningitidis Cas9) (protein) MAAFKPNSINYILGLDIGIASVGWAMVEIDEEENPIRLIDLGVRVFERAEVPKTGDSLAMARRLARSVRRLTRRRAHRLLRTRRLLKREGVLQAANFDENGLIKSLPNTPWQLRAAALDRKLTPLEWSAVLLHLIKHRGYLSQRKNEGETADKELGALLKGVAGNAHALQTGDFRTPAELALNKFEKESGHIRNQRSDYSHTFSRKDLQAELILLFEKQKEFGNPHVSGGLKEGIETLLMTQRPALSGDAVQKMLGHCTFEPAEPKAAKNTYTAERFIWLTKLNNLRILEQGSERPLTDTERATLMDEPYRKSKLTYAQARKLLGLEDTAFFKGLRYGKDNAEASTLMEMKAYHAISRALEKEGLKDKKSPLNLSPELQDEIGTAFSLFKTDEDITGRLKDRIQPEILEALLKHISFDKFVQISLKALRRIVPLMEQGKRYDEACAEIYGDHYGKKNTEEKIYLPPIPADEIRNPVVLRALSQARKVINGVVRRYGSPARIHIETAREVGKSFKDRKEIEKRQEENRKDREKAAAKFREYFPNFVGEPKSKDILKLRLYEQQHGKCLYSGKEINLGRLNEKGYVEIDHALPFSRTWDDSFNNKVLVLGSENQNKGNQTPYEYFNGKDNSREWQEFKARVETSRFPRSKKQRILLQKFDEDGFKERNLNDTRYVNRFLCQFVADRMRLTGKGKKRVFASNGQITNLLRGFWGLRKVRAENDRHHALDAVVVACSTVAMQQKITRFVRYKEMNAFDGKTIDKETGEVLHQKTHFPQPWEFFAQEVMIRVFGKPDGKPEFEEADTLEKLRTLLAEKLSSRPEAVHEYVTPLFVSRAPNRKMSGQGHMETVKSAKRLDEGVSVLRVPLTQLKLKDLEKMVNREREPKLYEALKARLEAHKDDPAKAFAEPFYKYDKAGNRTQQVKAVRVEQVQKTGVWVRNHNGIADNATMVRVDVFEKGDKYYLVPIYSWQVAKGILPDRAVVQGKDEEDWQLIDDSFNFKFSLHPNDLVEVITKKARMFGYFASCHRGTGNINIRIHDLDHKIGKNGILEGIGVKTALSFQKYQIDELGKEIRPCRLKKRPPVR,in vitro DNA cleavage by NmeCas9,"Cleavage was unaffected by prior incubation of NmeCas9 with increasing amounts of the control, type I-specific anti-CRISPR, AcrE2"
